From article doi:10.1101/2022.10.31.514592 (bioRxiv, 2022)

B1: S626-161 IgG (antibody, V domains shown)
VH: QLQLQESGPGLVKPSEALSLTCTVSGGSISTSNYYWGWIRQPPGKGLEWIGSIYYRGGTHYNPSLKTRVTISVDTSKNQFSLKLSSVTAADTAVYYCARHTYFYDIVGAAVWEPFDIWGQGTMVTVSS
VL: not shown
B2: S626-161 Fab (Fab, V domains shown)
VH: QLQLQESGPGLVKPSEALSLTCTVSGGSISTSNYYWGWIRQPPGKGLEWIGSIYYRGGTHYNPSLKTRVTISVDTSKNQFSLKLSSVTAADTAVYYCARHTYFYDIVGAAVWEPFDIWGQGTMVTVSS
VL: not shown
B3: S451-1140 IgG (antibody, V domains shown)
VH: EVQLVESGGGLVPPGGSLRLSCAASGFIFSNYAMTWVRQAPGKGLEWVSAISGGGGSTDYADSVKGRFTISRDNSKNTLYLQMNSLRAEDTAVYYCAKDLFGSGWSLFDNWGQGTLVTVSS
VL: not shown
B4: S451-1140 Fab (Fab, V domains shown)
VH: EVQLVESGGGLVPPGGSLRLSCAASGFIFSNYAMTWVRQAPGKGLEWVSAISGGGGSTDYADSVKGRFTISRDNSKNTLYLQMNSLRAEDTAVYYCAKDLFGSGWSLFDNWGQGTLVTVSS
VL: not shown
B5: S728-1157 IgG (antibody, V domains shown)
VH: EVQLVESGGGLVQPGGSLRLSCAASGLLVSRNYMNWVRQAPGKGLEWVSIIYSGGSTFYADSVEGRFTISRDESKNTLYLQMNSLRTDDTAVYYCARDLSDYGGIDCWGQGTLVTVSS
VL: ELTQPLSVSMALGQTARISCGGDNVGSQNVHWYQQRPGQAPVLVIYRDSNRPSGIPERFSGSKSGNTATLTISRAQAGDEADYYCQVWDSSTVAFGGGTKLTVL
B6: S728-1157 Fab (Fab, V domains shown)
VH: EVQLVESGGGLVQPGGSLRLSCAASGLLVSRNYMNWVRQAPGKGLEWVSIIYSGGSTFYADSVEGRFTISRDESKNTLYLQMNSLRTDDTAVYYCARDLSDYGGIDCWGQGTLVTVSS
VL: ELTQPLSVSMALGQTARISCGGDNVGSQNVHWYQQRPGQAPVLVIYRDSNRPSGIPERFSGSKSGNTATLTISRAQAGDEADYYCQVWDSSTVAFGGGTKLTVL

Experiments:
spike WT-6P [1] = molecular target: T1, spike WT-6P (SARS-CoV-2, wildtype (Wuhan-Hu-1 type), UniProt P0DTC2, stabilised, biotinylated (EZ-Link Sulfo-NHS-Biotin) for BLI); experiment: ELISA
spike BA.1 Omicron-6P = spike BA.1 Omicron-6P (SARS-CoV-2, Omicron BA.1, strain, biotinylated (EZ-Link Sulfo-NHS-Biotin) for BLI); experiment: ELISA
spike WT-6P [2] = molecular target: T1, spike WT-6P; experiment: BLI

| Binder | binding result (spike WT-6P [1]) | fold increase of ELISA binding compared with spike BA.1-2P (spike BA.1 Omicron-6P) [fold] | binding result (spike WT-6P [2]) |
| --- | --- | --- | --- |
| B1 | binds | > 3 |  |
| B2 |  |  | binds |
| B3 |  | > 3 | binds |
| B4 |  |  | binds |
| B5 |  | > 3 | binds |
| B6 |  |  | binds |
